B1: PPEF2 (parent)
chain: AFKAAALIQRWYRRYVARLEMRRR

Variants of: B1
Experiment: protein stability index of a GFP-peptide fusion (GPS, HEK-293T) (PSI 1-6); higher = more stable
Settings: c terminus: a fixed tail appended
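Also: lentivirally expressed fusions sorted by FACS into six bins by GFP to DsRed ratio, PSI derived from sequencing read proportions per bin multiplied by bin number.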

Row | Variant | protein stability index
1 | AFKAAALIQRWYRRYVARLEMRRM | 2.45
2 | AFKAAALIQRWYRRYVARLEMRRF | 1.81
3 | AFKAAALIQRWYRRYVARLEMDRR | 2.24
4 | AFKAAALIQRWYRRYVARLEMTRR | 3.82
5 | AFKAAALIQRWYRRYVARLEMYRR | 2.42
6 | AFKAAALIQRWYRRYVARLEMLRR | 3.12
7 | AFKAAALIQRWYRRYVARLEMQRR | 2.74
8 | AFKAAALIQRWYRRYVARLEMMRR | 1.75
9 | AFKAAALIQRWYRRYVARLEMCRR | 2.01
10 | AFKAAALIQRWYRRYVARLEMNRR | 3.83
11 | AFKAAALIQRWYRRYVARLEMPRR | 1.52
12 | AFKAAALIQRWYRRYVARLEMWRR | 2.52
13 | AFKAAALIQRWYRRYVARLEMSRR | 2.68
14 | AFKAAALIQRWYRRYVARLEMIRR | 1.89
15 | AFKAAALIQRWYRRYVARLEMVRR | 1.66
16 | AFKAAALIQRWYRRYVARLEMFRR | 2.32
17 | AFKAAALIQRWYRRYVYRLEMRRR | 2.76
18 | AFKAAALIQRWYRRYVTRLEMRRR | 3.34
19 | AFKAAALIQRWYRRYVSRLEMRRR | 3.2
20 | AFKAAALIQRWYRRYVVRLEMRRR | 3.84
21 | AFKAAALIQRWYRRYVWRLEMRRR | 2.66
22 | AFKAAALIQRWYRRYVARLESRRR | 2.11
23 | AFKAAALIQRWYRRYVARLEIRRR | 3.54
24 | AFKAAALIQRWYRRYVARLEFRRR | 3.32

Row | Variant | protein stability index
25 | AFKAAALIQRWYRRYVARLECRRR | 3.34
26 | AFKAAALIQRWYRRYVARLENRRR | 3.3
27 | AFKAAALIQRWYRRYVARLERRRR | 2.36
28 | AFKAAALIQRWYRRYVARLEARRR | 2.44
29 | AFKAAALIQRWYRRYVARLEERRR | 4.73
30 | AFKAAALIQRWYRRYVARLEVRRR | 3.7
31 | AFKAAALIQRWYRRYVARLELRRR | 3.39
32 | AFKAAALIQRWYRRYVARLEKRRR | 2.69
33 | AFKAAALIQRWYRRYVARLEQRRR | 4.15
34 | AFKAAALIQRWYRRYVARLEHRRR | 3.83
35 | AFKAAALIQRWYRRYVARLEPRRR | 2.18
36 | AFKAAALIQRWYRRYVARLEYRRR | 3.42
37 | AFKAAALIQRWYRRYVARLETRRR | 3.06
38 | AFKAAALIQRWYRRYVARLEDRRR | 2.98
39 | AFKAAALIQRWYRRYVARWEMRRR | 2.13
40 | AFKAAALIQRWYRRYVARFEMRRR | 2.45
41 | AFKAAALIQRWYRRYVARVEMRRR | 3.42
42 | AFKAAALIQRWYRRYVARCEMRRR | 2.48
43 | AFKAAALIQRWYRRYVARYEMRRR | 2.03
44 | AFKAAALIQRWYRRYVARPEMRRR | 3.63
45 | AFKAAALIQRWYRRYVARKEMRRR | 4.7
46 | AFKAAALIQRWYRRYVARSEMRRR | 4.1
47 | AFKAAALIQRWYRRYVARHEMRRR | 3.33
48 | AFKAAALIQRWYRRYVARIEMRRR | 3.64

Row | Variant | protein stability index
49 | AFKAAALIQRWYRRYVARQEMRRR | 3.87
50 | AFKAAALIQRWYRRYVARNEMRRR | 3.12
51 | AFKAAALIQRWYRRYVARTEMRRR | 4.63
52 | AFKAAALIQRWYRRYVARLEMRSR | 1.65
53 | AFKAAALIQRWYRRYVARLEMRTR | 2.25
54 | AFKAAALIQRWYRRYVARLEMRWR | 1.98
55 | AFKAAALIQRWYRRYVARLEMRAR | 2.81
56 | AFKAAALIQRWYRRYVARLEMRMR | 1.94
57 | AFKAAALIQRWYRRYVARLEMRER | 2.44
58 | AFKAAALIQRWYRRYVARLEMRIR | 2.13
59 | AFKAAALIQRWYRRYVARLEMRHR | 2.26
60 | AFKAAALIQRWYRRYVARLEMRYR | 1.58
61 | AFKAAALIQRWYRRYVARLEMRCR | 3.14
62 | AFKAAALIQRWYRRYVARLEMRPR | 2.36
63 | AFKAAALIQRWYRRYVARLEMRGR | 2.61
64 | AFKAAALIQRWYRRYVARLEMRLR | 2.48
65 | AFKAAALIQRWYRRYVARLEMRKR | 3.58
66 | AFKAAALIQRWYRRYVARLTMRRR | 2.65
67 | AFKAAALIQRWYRRYVARLDMRRR | 3.02
68 | AFKAAALIQRWYRRYVARLYMRRR | 3.25
69 | AFKAAALIQRWYRRYVARLVMRRR | 2.32
70 | AFKAAALIQRWYRRYVARLFMRRR | 3.06
71 | AFKAAALIQRWYRRYVARLLMRRR | 2.69
72 | AFKAAALIQRWYRRYVARLIMRRR | 2.63

Row | Variant | protein stability index
73 | AFKAAALIQRWYRRYVARLGMRRR | 3.31
74 | AFKAAALIQRWYRRYVARLHMRRR | 3.46
75 | AFKAAALIQRWYRRYVARLPMRRR | 3.41
76 | AFKAAALIQRWYRRYVARLSMRRR | 3.65
77 | AFKAAALIQRWYRRYVARLMMRRR | 2.39
78 | AFKAAALIQRWYRRYVARLWMRRR | 4.21
79 | AFKAAALIQRWYRRYVARLQMRRR | 4.2
80 | AFKAAALIQRWYRRYVARLNMRRR | 4.16
81 | AFKAAALIQRWYRRYVAGLEMRRR | 1.95
82 | AFKAAALIQRWYRRYVAELEMRRR | 1.96
83 | AFKAAALIQRWYRRYVAYLEMRRR | 3.1
84 | AFKAAALIQRWYRRYVADLEMRRR | 1.66
85 | AFKAAALIQRWYRRYVAALEMRRR | 2.12
86 | AFKAAALIQRWYRRYVATLEMRRR | 2.41
87 | AFKAAALIQRWYRRYVAFLEMRRR | 3.27
88 | AFKAAALIQRWYRRYVAKLEMRRR | 2.54
89 | AFKAAALIQRWYRRYVACLEMRRR | 2.25
90 | AFKAAALIQRWYRRYVAWLEMRRR | 2.77
91 | AFKAAALIQRWYRRYVAPLEMRRR | 2.09
92 | AFKAAALIQRWYRRYVAILEMRRR | 2.06
93 | AFKAAALIQRWYRRYVAMLEMRRR | 1.45
94 | AFKAAALIQRWYRRYVANLEMRRR | 2.71
